Laboratory results published in patent publication US20250163116A1, “NEW METHOD TO TREAT INFECTIOUS DISEASES” (INSERM (INSTITUT NATIONAL DE LA SANTÉ ET DE LA RECHERCHE …, priority 2022, published 2025).

Legend:
Format in all cases: cell-based, human
[1] = test system: HDMECs infected with Nm 2C4.3; experiment: Integrity of HDMEC monolayers infected with N. meningitidis (VE-cadherin at intercellular junctions, immunofluorescence); settings: 1 μg/mL added 30 min after initiation of Nm infection, 2 h 30
Method: (§1) FIG. 1. Exogenous ANGPTL4 exerts protective effects on dermal microvascular endothelial cells infected by N. meningitidis. A. HDMECs were infected with Nm 2C4.3 for 30 min and treated with 1 μg/mL of recombinant human ANGPTL4 for 2 h 30. Cells were fixed and stained for cellular actin, VE-cadherin and DAPI and analyzed by fluorescent microscopy. Quantifications of VE-cadherin enrichment at intercellular junctions and of intercellular spaces area were performed on 30 fields with Image J software. Kruskal-Wallis test ** P<0.001; P<0.0001. B. HDMEC were either uninfected or infected with N. meningitidis 2C4.3 for 30 min and treated with 1 μg mL−1 of recombinant human ANGPTL4, its N-terminal portion (nANGPTL4) or its C-terminal portion (cANGPTL4) for 2 h 30. Caspase-3/7 reagent was added to detect apoptosis in real time over 9 h using the IncuCyte® Live-Cell Analysis System
FIG. 2: Vascular protection is conferred by the N-terminal part of ANGPTL4. A, Schematic representation of ANGPTL4 structure. ANGPTL4 contains a N-terminal portion (nANGPTL4, aa 26-164) linked to a C-terminal portion (cANGPTL4, aa 164-406) by a cleavable linker. nANGPTL4 contains a highly conserved lipoprotein lipase (LPL) binding domain (aa 44-55), two cysteines on position 76 and 80 involved in protein oligomerization and a coiled-coil domain (aa 100-143). The C-terminal portion encodes a fibrinogen-like domain. B, HDMECs were infected with Nm 2C4.3 for 30 min and treated with 1 μg/mL of recombinant human ANGPTL4, nANGPTL4 or cANGPTL4 for 2 h 30. Cells were fixed and stained for cellular actin, VE-cadherin and DAPI and analyzed by fluorescent microscopy. B. Quantifications of VE-cadherin enrichment at intercellular junctions and of intercellular spaces area were performed on 30 fields with Image J software. Kruskal-Wallis test ** P<0.001, *** P<0.0001 of four independent experiments performed in triplicate.
FIG. 3: Vascular protection is conferred by a novel binding motif (aa 66-80) present in the N-terminal part of ANGPTL4. A, the indicated peptides were derived from nANGPTL4. B, HDMECs were infected with Nm 2C4.3 for 30 min and treated with 1 μg/mL of each peptides. Quantifications of VE-cadherin enrichment at intercellular junctions was performed on 30 fields with Image J software.
FIG. 4: Vascular protection is conferred by interaction of nANGPTL4 with Syndecan-4. A, HDMECs were infected with Nm 2C4.3 for 30 min and treated with 1 μg/mL of recombinant human ANGPTL4, nANGPTL4 or cANGPTL4 in the absence or in the presence of anti-SDC4 antibody for 2 h 30. Cells were fixed and stained for cellular actin, VE-cadherin and DAPI and analysed by fluorescent microscopy. Quantifications of VE-cadherin enrichment at intercellular junctions and of intercellular spaces area were performed on 30 fields with Image J software. Kruskal-Wallis test ** P<0.001, **** P<0.00001, ns1 P=0.2172; ns2 P>0.999 of four independent experiments performed in triplicate. B, HDMECs were transfected with small interfering RNA (siRNA) against SDC4 or non-targeting siRNA controls for 48 h, infected with Nm 2C4.3 for 30 min and treated with 1 μg/mL of recombinant human ANGPTL4, for 2 h 30. Quantifications of VE-cadherin enrichment at intercellular junctions and of intercellular spaces area were performed on 30 fields with Image J software. Kruskal-Wallis test ** P<0.001, *** P<0.0001, of two independent experiments performed in triplicate.
The day of infection, a suspension of the bacteria from an overnight culture on GCB agar plate was adjusted to OD600=0.05 and incubated for 2 h at 37° C. in a pre-warmed cell culture medium. Cells were infected with bacteria at a multiplicity of infection (MOI) of 100 bacteria per cell (OD=0.1) for 30 minutes, washed twice to remove non-adherent bacteria and infection was allowed to proceed for various periods of time. Cells were then washed and fixed in 4% paraformaldehyde for immunofluorescence analysis. […]

[2] = test system: Src kinase and VE-cadherin phosphorylation; experiment: Src kinase and VE-cadherin phosphorylation in infected HDMECs; settings: added 30 min after initiation of infection
From the text: (§2) In contrast to brain microvascular endothelial cells that resist to meningococcal infection, the integrity of dermal microvascular endothelial cell (HDMECs) monolayer was massively impaired upon infection, as observed with the loss of adherens junctions and cell detachment (data not shown). Since HDMEC poorly produces ANGPTL4 as compared to HBMEC (data not shown), we analysed whether the addition of recombinant human ANGPTL4 might exert a protective effect on these cells. […] Additionally, while infection was accompanied by the massive release of inflammatory cytokines (TNF-α, IL-6, IL-8), markers of vascular inflammation (E-selectin, ICAM-1, VCAM-1), and markers of endothelial cell alteration (Endoglin, Thrombomodulin), all these markers were reduced by 35 to 80% upon treatment with ANGPTL4 (data not shown).

[3] = test system: HDMEC infected with N. meningitidis 2C4.3; experiment: Caspase-3/7 apoptosis detection in infected HDMECs (IncuCyte); settings: Caspase-3/7 reagent, real time over 9 h, 1 μg/mL
Method: as §1

[4] = test system: HDMECs infected with N. meningitidis; experiment: Release of inflammatory cytokines and markers of vascular inflammation and endothelial alteration by infected HDMECs; settings: data not shown
From the text: as §2

| Molecule | protective effect on monolayer integrity (adherens junctions, cell detachment) of infected HDMECs [1] | Src kinase and VE-cadherin phosphorylation [2] | cell apoptosis induced by meningococcal infection [3] | reduction of TNF-α, IL-6, IL-8, E-selectin, ICAM-1, VCAM-1, Endoglin, Thrombomodulin release [4] [%] |
| --- | --- | --- | --- | --- |
| ANGPTL4: Recombinant human ANGPTL4 (Angiopoietin-like 4), full length, SEQ ID NO: 1, purchased from R&D Systems (protein, listed as Homo sapiens) MSGAPTAGAALMLCAATAVLLSAQGGPVQSKSPRFASWDEMNVLAHGLLQLGQGLREHAERTRSQLSALERRLSACGSACQGTEGSTDLPLAPESRVDPEVLHSLQTQLKAQNSRIQQLFHKVAQQQRHLEKQHLRIQHLQSQFGLLDHKHLDHEVAKPARRKRLPEMAQPVDPAHNVSRLHRLPRDCQELFQVGERQSGLFEIQPQGSPPFLVNCKMTSDGGWTVIQRRHDGSVDFNRPWEAYKAGFGDPHGEFWLGLEKVHSITGDRNSRLAVQLRDWDGNAELLQFSVHLGGEDTAYSLQLTAPVAGQLGATTVPPSGLSVPFSTWDQDHDLRRDKNCAKSLSGGWWFGTCSHSNLNGQYFRSIPQQRQKLKKGIFWKTWRGRYYPLQATTMLIQPMAAEAAS | entirely preserved the integrity of this monolayer | significantly reduced | inhibited cell apoptosis | 35 to 80 |
| nANGPTL4: N-terminal fragment of ANGPTL4, aa 26-164, SEQ ID NO: 24, purchased from R&D Systems (protein, nANGPTL4) GPVQSKSPRFASWDEMNVLAHGLLQLGQGLREHAERTRSQLSALERRLSACGSACQGTEGSTDLPLAPESRVDPEVLHSLQTQLKAQNSRIQQLFHKVAQQQRHLEKQHLRIQHLQSQFGLLDHKHLDHEVAKPARRK | sufficient to maintain cell monolayer integrity upon infection | – | – | – |
| cANGPTL4: C-terminal fragment of ANGPTL4, aa 164-406, fibrinogen-like domain, purchased from R&D Systems (protein, listed as Homo sapiens) RLPEMAQPVDPAHNVSRLHRLPRDCQELFQVGERQSGLFEIQPQGSPPFLVNCKMTSDGGWTVIQRRHDGSVDFNRPWEAYKAGFGDPHGEFWLGLEKVHSITGDRNSRLAVQLRDWDGNAELLQFSVHLGGEDTAYSLQLTAPVAGQLGATTVPPSGLSVPFSTWDQDHDLRRDKNCAKSLSGGWWFGTCSHSNLNGQYFRSIPQQRQKLKKGIFWKTWRGRYYPLQATTMLIQPMAAEAAS | no significant protective effect | – | – | – |
